We go through three molecules from US20100159527, “Polypeptides Having Nucleic Acid Binding Activity and Compositions and Methods For Nucleic Acid Amplification” (LIFE TECHNOLOGIES CORPORATION, published 2010).

Data set [1] has as its target T1, Pae3192 (Pyrobaculum aerophilum).
T1 chain: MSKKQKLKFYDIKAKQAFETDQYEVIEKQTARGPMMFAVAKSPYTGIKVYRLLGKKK
In words: EMSA; 150 nM duplex, 0-12 uM protein; 170 mM NaCl, 1 mM CaCl2, 25 mM Tris pH 8.0, 40 C, 1% agarose. As to conditions: tags: expressed from pET16b with N-terminal 10xHis and Factor Xa site. As for the experimental part:
(§1) Gel-shift experiments were carried out using 150 nM 42-mer duplex and separate experiments were performed with 0, 1.5, 3, 6 or 12 uM Pae3192 protein. A DNA:DNA duplex was created by annealing DNA oligonucleotides 1a and 2a of Table 1 below. An RNA:RNA duplex was created by annealing RNA oligonucleotides 1b and 2b of Table 1 below. A DNA:RNA duplex was created by annealing DNA oligonucleotide 1a to RNA oligonucleotide 2b of Table 1 below. DNA binding reactions contained 170 mM NaCl, 1 mM CaCl₂ and 25 mM Tris, pH 8.0. Pae3192 was incubated separately with each of the three duplexes for 15 minutes at 40° C. before being run on a 1% agarose gel.
(In general: A gel shift assay detects complexes by their altered migration in electrophoresis.)

Data set [2] concerns the target T1, Pae3192. In words: EMSA; not shifted up to 12 uM protein; 170 mM NaCl, 1 mM CaCl2, 25 mM Tris pH 8.0, 40 C, RNasin Plus. As to conditions: tags: expressed from pET16b with N-terminal 10xHis and Factor Xa site. Here is the method:
as §1

B1: 42-mer DNA:DNA duplex (oligos 1a+2a) (dsDNA)
DNA 1: CAGACTGGAATTCAAGCGCGAGCTCGAATAAGAGCTACTGTT
DNA 2: AACAGTAGCTCTTATTCGAGCTCGCGCTTGAATTCCAGTCTG
With B1, the binding result with Pae3192 [1] is listed as “binds”.

B2: 42-mer DNA:RNA duplex (oligos 1a+2b) (DNA:RNA)
DNA: CAGACTGGAATTCAAGCGCGAGCTCGAATAAGAGCTACTGTT
RNA: AACAGUAGCUCUUAUUCGAGCUCGCGCUUGAAUUCCAGUCUG
Consider B2, for which the binding result with Pae3192 [1] is on record as “binds”.

B3: 42-mer RNA:RNA duplex (oligos 1b+2b) (dsRNA)
RNA 1: CAGACUGGAAUUCAAGCGCGAGCUCGAAUAAGAGCUACUGUU
RNA 2: AACAGUAGCUCUUAUUCGAGCUCGCGCUUGAAUUCCAGUCUG
On to B3, for which the binding result in the data set with Pae3192 [2] was “no binding”.
